According to paper PMC5004148:

Columns and labels:
[1] = molecular target: transmembrane truncated VP24 (residues 28-208) (White spot syndrome virus (WSSV)); assay: cross-linking; purified VP24 in PBS (around 0.6 mg/ml in 40 ul) with rising glutaraldehyde, room temperature, 4 h; 15% SDS-PAGE, Coomassie blue
[2] = molecular target: transmembrane truncated VP24 (residues 28-208) (White spot syndrome virus (WSSV)); assay: crystal structure; X-ray, SAD phasing, 2.4 Å, space group I 2(1) 3; trimer by the crystallographic three-fold axis; 0.1 M Tris-HCl pH 8.5, 2.75 M ammonium acetate, 10 mM ATP as additive, 16 °C

Substance: transmembrane truncated VP24 (residues 28-208) (domain or fragment)
- stoichiometry N [1]: 3
- stoichiometry N [2]: 3
